Test results taken from the nanobody polyreactivity screen of Harvey et al. (2022).

experiment: yeast display, Sf9 membrane polyspecificity reagent, FACS + sequencing; frameworks hold sequencing errors
How it was run: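 A nanobody's polyreactivity label depends on the gate it was sorted from. Yeast display cells were stained with 10% biotinylated, detergent-solubilized Sf9 membrane reagent for 1 hour at 4 °C, enriched on streptavidin microbeads and sorted by FACS. The low and high (top ~1%) gates were set on anti-HA fluorescence for expression and streptavidin fluorescence for reagent binding.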

Sequence	polyreactivity (PSR sort gate)
QVHLVESGGGLVQAGGSLRLSCAASGLTFYGNAMGCYRQAPGKERELVAAISSSGGTTYYADSVKGRFTISRDNAKNTVYLQMNSLKPEDTAVYYCAARPSGGFESTRTRDYWGQGTQVTVSS	low polyreactivity
QVHLVESGGGLVQAGGSLRLSCAASGLTFYWYVMGWYRQAPGKERELVAVITGSGGSTYYADSVKGRFTISRDNAKNTVYLQMNSLKPEDTAAYYCARGGRYNRYYYWGQGTQVTVSS	high polyreactivity
QVHLVESGGGLVQAGGSLRLSCAASGNIFGLYAMGWYRQAPWKERELVAAISWRGGNTYYADYVKGRFTISRDNAKNTVYLQMNSLKPEDTAVYYCAAEAGYWYDYWGQGTQVTVSS	high polyreactivity
QVHLVESGGGLVQAGGSLRLSCAASGNIFYPNAMGWYRQAPGKERELVAAISSSGGSTYYADSVKGRFTISRDNAKNTVYLQMNSLKPEDTAVYYCNAYRQYRYDYWGQGTQVTVSS	low polyreactivity
QVHLVESGGGLVQAGGSLRLSCAASGNIIYWNGMGWYRKAPGKEREFVADITASGGSTYYADSVKGRFTISRDNAKNTVYLQMNSLIPEDTAVYYCAAQGVDSYYENDYWGQGTQVTVSS	high polyreactivity
QVHLVESGGGLVQAGGSLRLSCAASGRGYYALGWYRQAPGKERELVAAISRGGNTKYADSVKGRFTISRDNAKNSVYLQMNSLKPEDTAVYYCAAYAYSYELYYWGQGTQVTVSS	high polyreactivity
QVHLVESGGGLVQAGGSLRLSCAASGRIFARNAKGWYRQAPGKERELVATIRVGGGSTYYADSVKGRYTISRDNAKNTVYLQMNSLKPEDTAVYYCAVRQLYSYPGDRRGYYWGQGTQVTVSS	low polyreactivity
QVHLVESGGGLVQAGGSLRLSCAASGRIFDYYTMGWYRQAPGKERELVAAITWIGGSTYYEDSVKGRFTISRDNAKNTVYLQMNSLKPEDTAVYYCYAEGTALPYRADTVGGYYYWGQGTQVTVSS	low polyreactivity
QVHLVESGGGLVQAGGSLRLSCAASGRIFKKYAMGWYRQAPGKESELVATISSGGSTYYADSVKGRFTISRDNAKNTVYLQMNSLNPEDTAVYYCARREYVRRDYFVTTYDYWGQGTQVTVSS	low polyreactivity
QVHLVESGGGLVQAGGSLRLSCAASGRIFRQYAMGWYRQAPGKERELVAAISYSGGSTYYADSVKGRFTISRDYAKNTVYFQMNSLKPEDTAVYYCAATRWVPATGKFGYWGQGTQVTVSS	high polyreactivity
QVHLVESGGGLVQAGGSLRLSCAASGRIFTYYAMAWYRQAPGKEREMVAGITGSGASTYYADSVKGRFTISRDNAKNTVYLQMNSLKPEDTAVYYCNAPYVIRPFRGRYDYWGQGTQVTVSS	high polyreactivity
QVHLVESGGGLVQAGGSLRLSCAASGRIFYGYVMGWYRQAPGTEREFVAAITWSAGSTYYADSVKGRFTISRDNAKNTVYLQMNSLKPEDTALYYCADGGGHYQEYLMEDYWGQGTQVTVSS	high polyreactivity
QVHLVESGGGLVQAGGSLRLSCAASGRIMVHNAMGWYRQAPGKERELVAVITARGASTYYADSVKGRFTISRDNAKNTVYLQMNSLKPEDTAVYYCATDKRPKYYNQYDYWGQGTQVTVSS	low polyreactivity
QVHLVESGGGLVQAGGSLRLSCAASGRIRFNAMGWYRQAPGKERELVAAITSDGGRTYYADSVKGRFTISRDNAKNTVYLQMNSLKPEDTAVYYCNTDYILWGDYDYWGQGTQVTVSS	low polyreactivity
QVHLVESGGGLVQAGGSLRLSCAASGRLLVLNDMGWYRPEPGKVMELVADITSGGSTYYADSVKGRFTISRDNAKKTDYLQMNSLKPEDPAVYYCAADWNTYPDYQQSYFVSYEYNYWGQGTQVTVSS	low polyreactivity
QVHLVESGGGLVQAGGSLRLSCAASGRTFDDYAMGWYRQAPGKERELVAAISSSGGSTYYADSVKGRFTISRDNAKNTVYLQMNSLKPEDTAVYYCAADYDWGYWYDYWGQGTQVTVSS	low polyreactivity
QVHLVESGGGLVQAGGSLRLSCAASGRTFDRNAMGWYIQAPGKERELVAAISRNGGSTYYADSVKGRFTISRDNAKNTVYLQMNSLKPEDTAVYYCAAPRSVYDVARGDYWGQGTQVTVSS	high polyreactivity
QVHLVESGGGLVQAGGSLRLSCAASGRTFETYAMGWYRQSPGKERELVAAITTSGGTTYYADSVKGRFTISRDNAKNTVYLQMKSLKPEDTAVYYCAADPWIEDTYGSKAYYYWGQGTQVTVSS	low polyreactivity
QVHLVESGGGLVQAGGSLRLSCAASGRTFGRKAMGWYRQAPGKERELVASITKRGGSTYYADSVKGRFTISRDNAKNTVYLQMNSLKPVDTAVYYCAVEAYDYWGQGTQVTVSS	high polyreactivity
QVHLVESGGGLVQAGGSLRLSCAASGRTFGTYAMGWYRQAPGKERELVAAISSGGSTNYADSVKGRFTISRGNAKNTVYLQMNSLKPEDTAVYYCAAQGYWTYWPYLLRLYDYWGQGTQVTVSS	low polyreactivity
QVHLVESGGGLVQAGGSLRLSCAASGRTFGWNVMGWYRQAPGKERELVAAISGSGGSTYYADSVKGRFTISRDNAKNTVYLQMMSLKPEDTAVYYCAKEYPWMPRSYEYWGQGTQVTVSS	low polyreactivity
QVHLVESGGGLVQAGGSLRLSCAASGRTFGWNVMGWYRQAPGKERELVAAISGSGGSTYYADSVKGRFTISRDNAKNTVYLQMNSLKPEVTAVYYCAALYGPGREYDYWGQGTQVTVSS	low polyreactivity

Sequence	polyreactivity (PSR sort gate)
QVHLVESGGGLVQAGGSLRLSCAASGRTFHYYAMGWYRQAPGKERELVAAISVSGGSTYYADSVKGRFTISRDNAKNTVYLQMNSLKPEDNAVYYCAADDYLVEHDYWGQGTQVTVSS	low polyreactivity
QVHLVESGGGLVQAGGSLRLSCAASGRTFPSYAMGWYRQAPGKERELVAAITRGGSTYYADSVKGRFTISRDNAKNTVYLQMNSLKPEDTAVYYCATRYGRARAYYYWGQGTQVTVSS	high polyreactivity
QVHLVESGGGLVQAGGSLRLSCAASGRTFRIYAMGWYRPAPGKERELVAAISRSSTSTYYADSVKGRFTISRDNAKNTVYLQMNSLKPEDTAVYYCAAVVTVQYSQPYDHWGQGTQVTVSS	high polyreactivity
QVHLVESGGGLVQAGGSLRLSCAASGRTFTRYTMGCYRQAPGKESELVAAISRRGGSTYYADSVKGRFTISRHNAKNTVYLQMNSLKPEDTAFYYCNADYVPGRPSFIYDYWGQGTQVTVSS	high polyreactivity
QVHLVESGGGLVQAGGSLRLSCAASGRTFYPFGMGWYRQATGKERELVATITYSGARTYYADTVKGRFTISRDNAKNTVYLQMNILKPEDTAVYYCAAGYYWGIGTGFDYWGQGTQVTVSS	high polyreactivity
QVHLVESGGGLVQAGGSLRLSCAASGRTFYTYAMGWYRQATGKERELVAVIRRDGSTSYADSVKGRFTISRDNAKNTVFLQKNSLKPEDTAVYYCAVTRRGEYYWGQGTQVTVSS	high polyreactivity
QVHLVESGGGLVQAGGSLRLSCAASGRTLYDYAMEWYRQAPAKERELVAGITSGDSTYYADSVKGRFTISRDNAKNTVYLQMNSLKPEDTAVYYCAADSDTFYYTGYDYDYWGQGTQVTVSS	low polyreactivity
QVHLVESGGGLVQAGGSLRLSCAASGRTYARYTMAWYRQAPGKEREMVASITRGGSTYFADSVKGRFTISRDNAKNTVYLQMNSLKPGDTAVYYCAARFPQHNYWAMDYWGLGTQVTVSS	high polyreactivity
QVHLVESGGGLVQAGGSLRLSCAASGSIFEENAMGWYRQAPGKERELVAVISTRDGRTYYADSVKGRFTISRDNAKNTVYLQMNSLKPEDTAVYYCAASPDPYWRRMDYWGQGTQVTVSS	high polyreactivity
QVHLVESGGGLVQAGGSLRLSCAASGSIFFNNAMGWYRQPPGKERELVAAINYGNGSTYYADSVKGRFTISRDNAKNTVYLQMNSLKPEDTAVYYCNADYTGTRSDSVTPEYEYWGQGTQVTVSS	low polyreactivity
QVHLVESGGGLVQAGGSLRLSCAASGSIFRGYAMGWYRQAPGRERELVAAISRSGGSTYYADSVKGRFTISRDNAKNTVYLQRNSLKPEDTAGYYCAALLRGRYRMYYWGQGTQVTVSS	high polyreactivity
QVHLVESGGGLVQAGGSLRLSCAASGSIFSGNAMGWYRQAPGKERELVAAITSSGGNTYYADSVKGRFTISRDNAKNTVYLQMNSLKPADTAVYYCAADGVYWRWYLYTFWMDYWGQGTQVTVSS	low polyreactivity
QVHLVESGGGLVQAGGSLRLSCAASGSIFTGYAMGWYRQAPGKERELVAGISWGGTSTYYADSVKGRFTISRDNAKNTVYLQMNSLKPEDTAVYYCAAKPYYFYGMDYWGQGTQVTVSS	high polyreactivity
QVHLVESGGGLVQAGGSLRLSCAASGSIFTPYAMGWYRQAPGKERELVATISWSGGRTYYADSVKGRFTISRDNAKNTVYLQMNSLKPEDTAVYYCAARGYSSEYDYWGQGTQVTVSS	high polyreactivity
QVHLVESGGGLVQAGGSLRLSCAASGSIFTVYTMGWYRQAHGKERELVAAINSRGGTTYYADSVKGRFTISRDYAKNTVYLQMNSLKPEDTAVYYCAAKQRPKSYGPVHYYWGQGTQVTVSS	high polyreactivity
QVHLVESGGGLVQAGGSLRLSCAASGSIFVHYAMGWYRQAPGKERELVATISSSGGSTYYADSVKGRFTISRDNAKNTVYLQMKSLKPEDTAVYYCAADWTLDPSYGYYADDYWGQGTQVTVSS	low polyreactivity
QVHLVESGGGLVQAGGSLRLSCAASGSIFWANAMGWYSQAPGKERELVAAINFRATITYYADSVKGRFTISRDIAKNTFYLQMISLKPEDTAVYYCAGDSYECWYDYWGQGTEVTVSS	high polyreactivity
QVHLVESGGGLVQAGGSLRLSCAASGSIFYGNAMGWDRQATGKERELVAGISWYGGSTYYADSVKGRFTISRDNAKNTVYLQMNSLKPEDTAVYYCATVADEPRSYSGYEEYDYWGQGTQVTVSS	low polyreactivity
QVHLVESGGGLVQAGGSLRLSCAASGSIFYRNAMGWYRPAPGKERELVAAISSDGSTNYADSVKGRFTISRDNEKNTVYLQMNSLKPEDTAVYYCAAPWTQILDYWGQGNQVTVSS	low polyreactivity
QVHLVESGGGLVQAGGSLRLSCAASGSIFYSNAMGWYRQAPGKERELVAAITRGGSTHYADSVKGRFTISRDNAKNTVYLQMNSLKPEDTAVYYCNKDLNFAKYISSILYDYWGQGTQVSVSS	low polyreactivity
QVHLVESGGGLVQAGGSLRLSCAASGSIFYYNTMGWYRQAPGKERELVAGISWGGGRTYYADSVKGRFTISRDNAKNTVYLQMNSLKPEDTAVYYCNARHRRLPSNGGYDYWGKGTQVTVSS	high polyreactivity
